Source: PMC12386978 (2025)

B1: NLuc-mCRY1 (wild-type) [mouse (printed as mCRY1)] / CLuc-BMAL1 [not stated] (parent complex)
chain 1: MGVNAVHWFRKGLRLHDNPALKECIQGADTIRCVYILDPWFAGSSNVGINRWRFLLQCLEDLDANLRKLNSRLFVIRGQPADVFPRLFKEWNITKLSIEYDSEPFGKERDAAIKKLATEAGVEVIVRISHTLYDLDKIIELNGGQPPLTYKRFQTLVSKMEPLEMPADTITSDVIGKCMTPLSDDHDEKYGVPSLEELGFDTDGLSSAVWPGGETEALTRLERHLERKAWVANFERPRMNANSLLASPTGLSPYLRFGCLSCRLFYFKLTDLYKKVKKNSSPPLSLYGQLLWREFFYTAATNNPRFDKMEGNPICVQIPWDKNPEALAKWAEGRTGFPWIDAIMTQLRQEGWIHHLARHAVACFLTRGDLWISWEEGMKVFEELLLDADWSINAGSWMWLSCSSFFQQFFHCYCPVGFGRRTDPNGDYIRRYLPVLRGFPAKYIYDPWNAPEGIQKVAKCLIGVNYPKPMVNHAEASRLNIERMKQIYQQLSRYRGLGLLASVPSNSNGNGGLMGYAPGENVPSCSSSGNGGLMGYAPGENVPSCSGGNCSQGSGILHYAHGDSQQTHSLKQGRSSAGTGLSSGKRPSQEEDAQSVGPKVQRQSSN
chain 2: not shown

Variants of: B1
Test: split-luciferase complementation assay; HEK293T cells, n = 3; read off a plot

Row | response | Variant
1 | ~3200 | chain 1 K151Q
2 | ~3900 | chain 1 K151R
